This assay addresses platelet membrane GPIIb-IIIa complex (alpha IIb/beta 3 integrin) (human (endogenous in platelets)) (UniProt P08514). Briefly: radioligand binding.

B1: arginine, glycine, aspartic acid (RGDS) (peptide)
peptide: RGDS
In turn, B1 returned a % inhibition of fibrinogen binding at 100 uM RGDS of 92%.

Source of the values: publication PMC2191135.
